Experimental data published in patent publication US20140087995A1 (published 2014).
Blank lines part the entries; values can stand above or below the binder they belong to. Numbered stars: 1 amine (or outer) side, 2 acyl side, 3 side chain; on linkers, the order of the positions; unused ones are H or OH. Bridge positions count the residues as written; N and C are the ends. Side chains are listed from the residue outwards. Ends that are not written are not given here. * marks the point of attachment. C20 diacid = O=C(O)CCCCCCCCCCCCCCCCCCC(=O)*; C16 diacid = O=C(O)CCCCCCCCCCCCCCC(=O)*; γGlu = O=C(O)[C@H](CCC(=O)[*:2])N[*:1]; C14 diacid = O=C(O)CCCCCCCCCCCCC(=O)*; AEEA = NCCOCCOCC(=O)O

Assays:
[1] = target: T1, rat amylin receptor (rat calcitonin receptor + rat RAMP 3) (rat, UniProt P32214 25-516; Q9JJ73 23-147); test: SPA competition with 125I-rat amylin, membranes of BHK cells with rat calcitonin receptor + rat RAMP3 (Assay VI)
T1 construct: whole, on cells; Membranes of transiently transfected BHK tk'ts 13 cells (Assay VI); also called rAmylin-R; rat amylin 3(a) receptor
T1 sequence (looked up) 1: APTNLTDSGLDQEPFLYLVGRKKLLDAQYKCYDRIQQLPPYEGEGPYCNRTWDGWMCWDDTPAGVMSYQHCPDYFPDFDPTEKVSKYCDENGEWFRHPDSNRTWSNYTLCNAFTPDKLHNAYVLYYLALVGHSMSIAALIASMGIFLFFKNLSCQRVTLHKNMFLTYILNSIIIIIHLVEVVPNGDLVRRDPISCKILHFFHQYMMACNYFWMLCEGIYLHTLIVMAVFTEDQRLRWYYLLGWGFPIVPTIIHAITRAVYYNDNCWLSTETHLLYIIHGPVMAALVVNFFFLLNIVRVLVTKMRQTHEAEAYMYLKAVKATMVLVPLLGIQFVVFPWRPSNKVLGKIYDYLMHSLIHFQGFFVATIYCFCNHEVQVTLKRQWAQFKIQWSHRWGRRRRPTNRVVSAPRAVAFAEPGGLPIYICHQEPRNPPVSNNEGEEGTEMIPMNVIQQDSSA
T1 sequence (looked up) 2: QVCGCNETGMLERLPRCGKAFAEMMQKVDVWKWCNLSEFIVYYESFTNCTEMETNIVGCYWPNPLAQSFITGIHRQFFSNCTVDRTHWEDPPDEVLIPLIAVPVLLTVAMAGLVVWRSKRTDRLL

rat calcitonin receptor [2] = target: T2, rat calcitonin receptor (rat, UniProt P32214 25-516); test: ratio IC50 rat calcitonin receptor / IC50 rat amylin receptor (reference)
T2 construct: whole, on cells; Membranes of transiently transfected BHK tk'ts 13 cells (Assay VIII); also called rCTR
T2 sequence (looked up): T1 sequence (looked up) 1

[3] = target: T3, human calcitonin receptor (human, UniProt P30988 25-474); test: ratio IC50 human calcitonin receptor / IC50 human amylin receptor (reference)
T3 construct: whole, on cells; Membranes of a stably transfected BHK cell line (Assay VII); also called hCTR; hCT
T3 sequence (looked up): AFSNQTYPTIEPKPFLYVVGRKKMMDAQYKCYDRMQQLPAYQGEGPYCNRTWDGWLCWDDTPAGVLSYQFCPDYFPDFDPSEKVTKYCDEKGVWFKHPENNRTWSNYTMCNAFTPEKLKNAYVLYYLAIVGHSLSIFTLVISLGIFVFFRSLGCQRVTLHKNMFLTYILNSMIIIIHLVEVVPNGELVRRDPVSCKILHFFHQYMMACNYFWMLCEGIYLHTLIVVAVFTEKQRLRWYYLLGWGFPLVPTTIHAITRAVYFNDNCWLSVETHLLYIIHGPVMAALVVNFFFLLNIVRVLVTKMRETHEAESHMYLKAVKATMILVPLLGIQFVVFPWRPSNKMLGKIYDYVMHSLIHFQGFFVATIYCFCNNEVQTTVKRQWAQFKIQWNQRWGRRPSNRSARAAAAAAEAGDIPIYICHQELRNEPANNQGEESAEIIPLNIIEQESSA
Experimental: The resulting pellet was resuspended, homogenized and centrifuged (20.000 rpm, 15 min) in a buffer containing 20 mM Na-HEPES and 0.1 mM EDTA (pH 7.4, buffer 2). The resulting pellet was resuspended in buffer 2 and protein concentration was measured (BCA protein Assay, Pierce). The homogenate was kept cold during the whole procedure. The membranes were kept at −80° C. until use. The assay was performed in a 384 well Optiplate (PerkinElmer) in a total volume of 40 ul. Membranes were mixed with SPA beads. Final concentration of membranes 35 ng/μL final and SPA beads was 0.05 mg/well. Test-compounds were dissolved in DMSO and further diluted in assay buffer (50 mM Hepes, pH 7.4, 1 mM CaCl2, 5 mM MgCl₂, 0.1% OA and 0.02% Tween20). […] The final mixture was incubated with shaking at 400 rpm for 120 min at 25° C. prior to centrifugation (1500 rpm, 10 min). Samples were analyzed on TopCounter™ (Packard). The IC₅₀ was calculated using (one site binding competition analysis) GraphPad Prism5 as a measure of receptor affinity.
Membranes were prepared in the following way; the cells were rinsed with PBS and incubated with Versene for approximately 5 min before harvesting. The cells were flushed with PBS and the cell-suspension was centrifuged for 5 min at 1000 rpm. Cells were homogenized (Ultrathurrax) in a buffer containing 20 mM Na-HEPES and 10 mM EDTA (pH 7.4) and centrifuged at 20.000 rpm for 15 min. The resulting pellet was resuspended, homogenized and centrifuged (20.000 rpm, 15 min) in a buffer containing 20 mM Na-HEPES and 0.1 mM EDTA (pH 7.4, buffer 2). The resulting pellet was resuspended in buffer 2 and protein concentration was measured (BCA protein Assay, Pierce). The homogenate was kept cold during the whole procedure. The membranes were kept at −80° C. until use. Assay was performed in a 384 well Optiplate (PerkinElmer) in a total volume of 40 ul. Membranes were mixed with SPA beads.

rat calcitonin receptor [4] = target: T2, rat calcitonin receptor; test: SPA competition with 125I-calcitonin, membranes of BHK cells with rat calcitonin receptor (Assay VIII)

B1: N^ε1-[2-[2-[2-[[2-[2-[2-[[(4S)-4-carboxy-4-(19-carboxynonadecanoylamino)butanoyl]amino]ethoxy]ethoxy]acetyl]amino]ethoxy]ethoxy]acetyl]-[Arg17,Pro21,Pro27,Pro34 … (peptide)
peptide: K([AEEA-AEEA-γGlu-C20 diacid])CNTATCATQRLANFLRHSSPNFGAIPSSTNVGPNTY-NH2
modifications: disulfide 2-7; N-terminus assumed
SMILES: CC[C@H](C)[C@H](NC(=O)[C@H](C)NC(=O)CNC(=O)[C@H](Cc1ccccc1)NC(=O)[C@H](CC(N)=O)NC(=O)[C@@H]1CCCN1C(=O)[C@H](CO)NC(=O)[C@H](CO)NC(=O)[C@H](Cc1c[nH]cn1)NC(=O)[C@H](CCCNC(=N)N)NC(=O)[C@H](CC(C)C)NC(=O)[C@H](Cc1ccccc1)NC(=O)[C@H](CC(N)=O)NC(=O)[C@H](C)NC(=O)[C@H](CC(C)C)NC(=O)[C@H](CCCNC(=N)N)NC(=O)[C@H](CCC(N)=O)NC(=O)[C@@H](NC(=O)[C@H](C)NC(=O)[C@@H]1CSSC[C@H](NC(=O)[C@@H](N)CCCCNC(=O)COCCOCCNC(=O)COCCOCCNC(=O)CC[C@H](NC(=O)CCCCCCCCCCCCCCCCCCC(=O)O)C(=O)O)C(=O)N[C@@H](CC(N)=O)C(=O)N[C@@H]([C@@H](C)O)C(=O)N[C@@H](C)C(=O)N[C@@H]([C@@H](C)O)C(=O)N1)[C@@H](C)O)C(=O)N1CCC[C@H]1C(=O)N[C@@H](CO)C(=O)N[C@@H](CO)C(=O)N[C@H](C(=O)N[C@@H](CC(N)=O)C(=O)N[C@H](C(=O)NCC(=O)N1CCC[C@H]1C(=O)N[C@@H](CC(N)=O)C(=O)N[C@H](C(=O)N[C@@H](Cc1ccc(O)cc1)C(N)=O)[C@@H](C)O)C(C)C)[C@@H](C)O
notes: also called compound 98
IC50 [1]: 0.137 nM
Ratio rCT/rAmylin binding (rat calcitonin receptor [2]): 176
Ratio hCT/hAmylin binding [3]: 74.1
IC50 (rat calcitonin receptor [4]): 24.1 nM

B3: N^ε1-[2-[2-[2-[[(4S)-4-carboxy-4-(19-carboxynonadecanoylamino)butanoyl]amino]ethoxy]ethoxy]acetyl]-[His14,Arg17,Pro21,Pro27,Arg34]-h-amylin (peptide)
peptide: K([AEEA-γGlu-C20 diacid])CNTATCATQRLAHFLRHSSPNFGAIPSSTNVGRNTY-NH2
modifications: disulfide 2-7; N-terminus assumed
SMILES: CC[C@H](C)[C@H](NC(=O)[C@H](C)NC(=O)CNC(=O)[C@H](Cc1ccccc1)NC(=O)[C@H](CC(N)=O)NC(=O)[C@@H]1CCCN1C(=O)[C@H](CO)NC(=O)[C@H](CO)NC(=O)[C@H](Cc1c[nH]cn1)NC(=O)[C@H](CCCNC(=N)N)NC(=O)[C@H](CC(C)C)NC(=O)[C@H](Cc1ccccc1)NC(=O)[C@H](Cc1c[nH]cn1)NC(=O)[C@H](C)NC(=O)[C@H](CC(C)C)NC(=O)[C@H](CCCNC(=N)N)NC(=O)[C@H](CCC(N)=O)NC(=O)[C@@H](NC(=O)[C@H](C)NC(=O)[C@@H]1CSSC[C@H](NC(=O)[C@@H](N)CCCCNC(=O)COCCOCCNC(=O)CC[C@H](NC(=O)CCCCCCCCCCCCCCCCCCC(=O)O)C(=O)O)C(=O)N[C@@H](CC(N)=O)C(=O)N[C@@H]([C@@H](C)O)C(=O)N[C@@H](C)C(=O)N[C@@H]([C@@H](C)O)C(=O)N1)[C@@H](C)O)C(=O)N1CCC[C@H]1C(=O)N[C@@H](CO)C(=O)N[C@@H](CO)C(=O)N[C@H](C(=O)N[C@@H](CC(N)=O)C(=O)N[C@H](C(=O)NCC(=O)N[C@@H](CCCNC(=N)N)C(=O)N[C@@H](CC(N)=O)C(=O)N[C@H](C(=O)N[C@@H](Cc1ccc(O)cc1)C(N)=O)[C@@H](C)O)C(C)C)[C@@H](C)O
notes: also called compound 84
IC50 [1]: 5.05 nM
Ratio rCT/rAmylin binding (rat calcitonin receptor [2]): 94.3
Ratio hCT/hAmylin binding [3]: 120
IC50 (rat calcitonin receptor [4]): 477 nM

Continued, values first:

IC50 [1]: 1.24 nM
Ratio rCT/rAmylin binding (rat calcitonin receptor [2]): 327
Ratio hCT/hAmylin binding [3]: 18.5
IC50 (rat calcitonin receptor [4]): 404 nM
B2: N^ε1-[(4S)-4-carboxy-4-(15-carboxypentadecanoylamino)butanoyl]-[Arg17,Pro21,Pro27,His34]-h-amylin (peptide)
peptide: K([γGlu-C16 diacid])CNTATCATQRLANFLRHSSPNFGAIPSSTNVGHNTY-NH2
modifications: disulfide 2-7; N-terminus assumed
SMILES: CC[C@H](C)[C@H](NC(=O)[C@H](C)NC(=O)CNC(=O)[C@H](Cc1ccccc1)NC(=O)[C@H](CC(N)=O)NC(=O)[C@@H]1CCCN1C(=O)[C@H](CO)NC(=O)[C@H](CO)NC(=O)[C@H](Cc1c[nH]cn1)NC(=O)[C@H](CCCNC(=N)N)NC(=O)[C@H](CC(C)C)NC(=O)[C@H](Cc1ccccc1)NC(=O)[C@H](CC(N)=O)NC(=O)[C@H](C)NC(=O)[C@H](CC(C)C)NC(=O)[C@H](CCCNC(=N)N)NC(=O)[C@H](CCC(N)=O)NC(=O)[C@@H](NC(=O)[C@H](C)NC(=O)[C@@H]1CSSC[C@H](NC(=O)[C@@H](N)CCCCNC(=O)CC[C@H](NC(=O)CCCCCCCCCCCCCCC(=O)O)C(=O)O)C(=O)N[C@@H](CC(N)=O)C(=O)N[C@@H]([C@@H](C)O)C(=O)N[C@@H](C)C(=O)N[C@@H]([C@@H](C)O)C(=O)N1)[C@@H](C)O)C(=O)N1CCC[C@H]1C(=O)N[C@@H](CO)C(=O)N[C@@H](CO)C(=O)N[C@H](C(=O)N[C@@H](CC(N)=O)C(=O)N[C@H](C(=O)NCC(=O)N[C@@H](Cc1c[nH]cn1)C(=O)N[C@@H](CC(N)=O)C(=O)N[C@H](C(=O)N[C@@H](Cc1ccc(O)cc1)C(N)=O)[C@@H](C)O)C(C)C)[C@@H](C)O

IC50 [1]: 2.52 nM
Ratio rCT/rAmylin binding (rat calcitonin receptor [2]): 280
Ratio hCT/hAmylin binding [3]: 23.5
IC50 (rat calcitonin receptor [4]): 707 nM
B4: N^ε1-[(4S)-4-carboxy-4-(13-carboxytridecanoylamino)butanoyl]-[Arg17,Pro21,Pro27,His34]-h-amylin (peptide)
peptide: K([γGlu-C14 diacid])CNTATCATQRLANFLRHSSPNFGAIPSSTNVGHNTY-NH2
modifications: disulfide 2-7; N-terminus assumed
SMILES: CC[C@H](C)[C@H](NC(=O)[C@H](C)NC(=O)CNC(=O)[C@H](Cc1ccccc1)NC(=O)[C@H](CC(N)=O)NC(=O)[C@@H]1CCCN1C(=O)[C@H](CO)NC(=O)[C@H](CO)NC(=O)[C@H](Cc1c[nH]cn1)NC(=O)[C@H](CCCNC(=N)N)NC(=O)[C@H](CC(C)C)NC(=O)[C@H](Cc1ccccc1)NC(=O)[C@H](CC(N)=O)NC(=O)[C@H](C)NC(=O)[C@H](CC(C)C)NC(=O)[C@H](CCCNC(=N)N)NC(=O)[C@H](CCC(N)=O)NC(=O)[C@@H](NC(=O)[C@H](C)NC(=O)[C@@H]1CSSC[C@H](NC(=O)[C@@H](N)CCCCNC(=O)CC[C@H](NC(=O)CCCCCCCCCCCCC(=O)O)C(=O)O)C(=O)N[C@@H](CC(N)=O)C(=O)N[C@@H]([C@@H](C)O)C(=O)N[C@@H](C)C(=O)N[C@@H]([C@@H](C)O)C(=O)N1)[C@@H](C)O)C(=O)N1CCC[C@H]1C(=O)N[C@@H](CO)C(=O)N[C@@H](CO)C(=O)N[C@H](C(=O)N[C@@H](CC(N)=O)C(=O)N[C@H](C(=O)NCC(=O)N[C@@H](Cc1c[nH]cn1)C(=O)N[C@@H](CC(N)=O)C(=O)N[C@H](C(=O)N[C@@H](Cc1ccc(O)cc1)C(N)=O)[C@@H](C)O)C(C)C)[C@@H](C)O
